Assay results from the RNAGym collection of RNA variant scans (doi:10.7554/elife.80360).

B1: CPEB3 Ribozyme (parent)
chain: GGGGGCCACAGCAGAAGCGUUCACGUCGCGGCCCCUGUCAGAUUCUGGUGAAUCUGCGAAUUCUGCUGU

Variants of: B1
Test: self-cleavage, relative activity (ratio to wild type); higher = more cleavage; co-transcriptional

Variant | self-cleavage
G2A C22G | 0.0504
G2A C22U | 0.051
G2C C18A | 0.0265
G2C C18U | 0.0354
G2U A15C | 0.085
G2U A15U | 0.0721
G2U G14C | 0.0522
G2U G14U | 0.0888
G2A C66G | 0.101
G2A C66A | 0.0939
G2A C66U | 0.236
G2C G37A | 0.0459
G2C G37U | 0.0045
G2U C22A | 0.0323
G2U C22G | 0.039
G2U C22U | 0.039
G2A G19U | 0.0445
G2A G19A | 0.0283
G2A C63G | 0.0931
G2A C63U | 0.173
G2C U21G | 0.0813
G2C U21A | 0.0234
G2C G48U | 0.105
G2C G48C | 0.0429

Variant | self-cleavage
G2C A40U | 0.0469
G2C A40G | 0.0911
G2C A40C | 0.0316
G2U C12U | 0.13
G2U C12A | 0.0547
G2U C12G | 0.0633
G2C A15U | 0.0423
G2C A15C | 0.0125
G2C A15G | 0.0305
G2C C35G | 0.313
G2C C35A | 0.0223
G2A G28U | 0.0733
G2A G28A | 0.0492
G2C G4A | 0.0684
G2C G4U | 0.0417
G2C G4C | 0.0427
G2A C32U | 0.0612
G2A U64C | 0.0804
G2A U64A | 0.115
G2A U64G | 0.0844
G2A U20G | 0.0568
G2A G56A | 0.1
G2A G56U | 0.0991
G2A G56C | 0.0906

Variant | self-cleavage
G2A C45G | 0.217
G2A G14C | 0.075
G2A G14A | 0.0649
G2A G14U | 0.0746
G2A U61C | 0.0999
G2C C22A | 0.0368
G2C C22U | 0.0697
G2C C66A | 0.052
G2C C66U | 0.0685
G2C C24G | 0.0232
G2C C24A | 0.0707
G2U A51G | 0.127
G2U A51U | 0.0841
G2U C6G | 0.0267
G2U C6U | 0.0652
G2U C6A | 0.0497
G2U C57G | 0.0241
G2U C57A | 0.0471
G2C A60C | 0.0369
G2C A60G | 0.0533
G2C A60U | 0.0243
G2U A23U | 0.133
G2U A23C | 0.0692
G2U A42G | 0.0791

Variant | self-cleavage
G2U A42U | 0.0798
G2U A42C | 0.0887
G2A C33U | 0.0941
G2A C33A | 0.0406
G2U C18G | 0.00659
G2A C24G | 0.0162
G2A C57A | 0.0762
G2A C57U | 0.0401
G2A C57G | 0.047
G2C U36C | 0.063
G2A G3U | 0.0425
G2A G3A | 0.0827
G2A G3C | 0.176
G2C A52C | 0.0825
G2A G25C | 0.0386
G2A G25U | 0.0625
G2U A60C | 0.0553
G2U A60U | 0.0623
G2U A52C | 0.0652
G2A C27A | 0.0442
G2A C27G | 0.0739
G2A C27U | 0.0441
G2U A16U | 0.0525
G2A U43A | 0.139

Variant | self-cleavage
G2A U43C | 0.123
G2A U43G | 0.144
G2C U26A | 0.0328
G2C U26G | 0.0511
G2C U26C | 0.0734
G2C U46G | 0.0683
G2C U46C | 0.0336
G2C U46A | 0.0309
G2A G30A | 0.0606
G2A G30C | 0.0605
G2A G30U | 0.058
G2A U49G | 0.149
G2A U49C | 0.21
G2A U38C | 0.117
G2A U38A | 0.134
G2C G19U | 0.0175
G2C G19C | 0.0249
G2C C29G | 0.0119
G2C C29U | 0.0639
G2U G5U | 0.0421
G2A U53G | 0.109
G2A G31A | 0.0613
G2C G56U | 0.0319
G2C G56A | 0.014

Variant | self-cleavage
G2C G56C | 0.0446
G2C A23C | 0.0568
G2U G4U | 0.0539
G2U G4C | 0.0426
G2C A13G | 0.084
G2C A13U | 0.0221
G2C A51G | 0.0786
G2C A51C | 0.0374
G2C U62G | 0.0405
G2C U62A | 0.0592
G2U A10C | 0.0945
G2C G25U | 0.0456
G2C G25C | 0.0473
G2A G68A | 0.445
G2A G68C | 0.335
G2C A42G | 0.0702
G2C C27A | 0.0594
G2C C27G | 0.106
G2C C57G | 0.0289
G2C C57U | 0.054
G2C C57A | 0.036
G2C U20C | 0.0285
G2C U20A | 0.0496
G2C U38G | 0.0453

Variant | self-cleavage
G2C U38C | 0.0174
G2A G65U | 0.067
G2A G65C | 0.122
G2C U49C | 0.0424
G2C U49G | 0.0393
G2C U49A | 0.0745
G2A G17U | 0.0353
G2A G17A | 0.0268
G2C U53G | 0.0245
G2A U62A | 0.11
G2A U62G | 0.129
G2A U62C | 0.146
G2A G41A | 0.0631
G2A G41U | 0.0833
G2C C12U | 0.065
G2C C12G | 0.0599
G2C C34A | 0.0678
G2C C34U | 0.0646
G2A U26C | 0.114
G2A U26A | 0.11
G2A U26G | 0.0691
G2U C33G | 0.066
G2U C33U | 0.117
G2U C33A | 0.0922

Variant | self-cleavage
G2U | 0.0871
G2C | 0.0678
G2C C9A | 0.0938
G2C C9G | 0.123
G2A C35A | 0.0641
G2A C35U | 0.542
G2A C35G | 0.0841
G2C C39U | 0.0154
G2C G3C | 0.0247
G2C G3A | 0.055
G2C C63G | 0.0678
G2A G58A | 0.0846
G2A G58U | 0.221
G2A G58C | 0.106
G2C G41U | 0.101
G2C G41C | 0.0808
G2C A59C | 0.027
G2C A59U | 0.0322
G2C G14C | 0.0627
G2C G14A | 0.0455
G2C G58U | 0.0467
G2C G58C | 0.0216
G2U C35A | 0.256
G2A U44C | 0.123

Variant | self-cleavage
G2A G5A | 0.0392
G2A G5C | 0.122
G2C C45A | 0.0472
G2C C45U | 0.0464
G2C C45G | 0.0374
G2U C39U | 0.0814
G2U C39G | 0.045
G2U C39A | 0.0535
G2U C66G | 0.0712
G2C G28A | 0.0369
G2C G28C | 0.0457
G2C G28U | 0.0543
G2C G30A | 0.0388
G2C G30U | 0.0301
G2U C7A | 0.0706
G2U C7U | 0.0578
G2U C7G | 0.0573
G2A C54U | 0.152
G2A C54A | 0.112
G2A U67A | 0.281
G2A U67G | 0.167
G2A U67C | 0.242
G2U C34A | 0.0756
G2U C34G | 0.0441

Variant | self-cleavage
G2U A59U | 0.0606
G2U A59C | 0.05
G2C U67C | 0.106
G2C U67G | 0.0872
G2C U67A | 0.0227
G2U C27U | 0.0348
G2U C27G | 0.0366
G2U G3C | 0.0704
G2U G3A | 0.0298
G2C U69A | 0.111
G2C U69C | 0.147
G2C A8U | 0.0675
G2C A8C | 0.039
G2U C24U | 0.038
G2U C24G | 0.0682
G2U C24A | 0.0672
G2C G11C | 0.0455
G2C G11U | 0.0219
G2C G11A | 0.0352
G2C G47C | 0.0332
G2C G68C | 0.114
G2C G68A | 0.11
G2A G37A | 0.0498
G2A G37C | 0.0177

Variant | self-cleavage
G2A G37U | 0.0408
G2U G11A | 0.049
G2U G11U | 0.0835
G2C C7U | 0.0258
G2C C7A | 0.0323
G2U C45U | 0.102
G2U C45A | 0.0935
G2U C45G | 0.0316
G2C A16U | 0.0422
G2C A16C | 0.0354
G2C A16G | 0.0604
G2U C32U | 0.113
G2U C32G | 0.0483
G2C U55C | 0.0587
G2C U55G | 0.0548
G2A C18U | 0.0628
G2C C6U | 0.0751
G2C C6G | 0
G2C C6A | 0.0465
G2C C33A | 0.0155
G2C C33U | 0.0465
G2C C33G | 0.0592
G2C U61G | 0.0289
G2C U61A | 0.0082

Variant | self-cleavage
G2C U61C | 0.048
G2U C9A | 0.149
G2U C9G | 0.129
G2A U55G | 0.0739
G2A U55A | 0.109
G2A U55C | 0.0545
G2C G65C | 0.0537
G2U C29A | 0.0519
G2U C29G | 0.0442
G2U A40U | 0.0492
G2U A40C | 0.087
G2C A10U | 0.0719
G2C A10G | 0.0728
G2C A10C | 0.0373
G2A G48U | 0.215
G2A G48C | 0.227
G2A G48A | 0.213
G2C C32A | 0.00762
G2C C32G | 0.0507
G2C C32U | 0.0415
G2U C54G | 0.0751
G2U C54U | 0.0892
G2A U21C | 0.0698
G2A U21A | 0.114

Variant | self-cleavage
G2A U21G | 0.0545
G2A C34A | 0.0453
G2A C34U | 0.106
G2C G5A | 0.0455
G2C U44C | 0.0257
G2C U64G | 0.137
G2C U64C | 0.0536
G2C U64A | 0.0485
G2A G47A | 0.189
G2A G47C | 0.176
G2A U46G | 0.135
G2A U46C | 0.13
G2A U46A | 0.202
G2C G50C | 0.0266
G2C G50U | 0.0262
G2A G50U | 0.173
G2A G50A | 0.177
G2A G50C | 0.154
G2A U36A | 0.0357
G2A U36G | 0.209
G2A U36C | 0.129
G2C G17A | 0.0551
G2C G17C | 0.0475
G2A C39A | 0.032

Variant | self-cleavage
G2A C39U | 0.072
G2U A8U | 0.0613
G2U A8C | 0.0912
G2U A8G | 0.0691
G2C G31C | 0.0401
G2C G31U | 0.0216
G2C G31A | 0.0545
G2U A13C | 0.09
G2U A13U | 0.052
G2C U43A | 0.0772
G2C U43C | 0.0672
G2A G11U | 0.117
G2A G11A | 0.101
G2A G11C | 0.0914
G2A C29G | 0.0351
G2A C29U | 0.0474
G2A C29A | 0.0397
G2C C54A | 0.0299
G2C C54U | 0.0485
G2U G17A | 0.0534
G2A U69G | 0.335
G2A U69A | 0.256
